{"source": "paper PMC1904285", "binders": {"B1": {"name": "ON-Mt (ssDNA)", "DNA": "AAAAAAAAAAGCACTTAAAAAAAAA"}, "B2": {"name": "ONc (ssDNA)", "DNA": "ATCCTACTGATTGGCCAAGGTGCTG"}, "B3": {"name": "ITC2 (consensus variant GTCTTTT) (ssDNA)", "DNA": "GTCTTTT"}, "B4": {"name": "ITC1 (consensus variant GTCTTTG) (ssDNA)", "DNA": "GTCTTTG"}}, "key": {"[1]": {"target": "His6-CspB (major cold shock protein);SsoSSB (Bacillus subtilis;Sulfolobus …, UniProt P32081;Q97W73 1-67;1-148, |)", "sequence (P32081 whole entry, one chain of several)": "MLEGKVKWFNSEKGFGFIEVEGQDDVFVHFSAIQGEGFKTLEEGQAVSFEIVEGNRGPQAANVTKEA", "assay": "EMSA"}, "[2]": {"target": "T1, His6-CspB (major cold shock protein) (Bacillus subtilis, UniProt P32081 1-67)", "T1 sequence (P32081 whole entry)": "as the sequence (P32081 whole entry, one chain of several) above", "assay": "competition EMSA"}, "SsoSSB": {"target": "T2, SsoSSB (Sulfolobus solfataricus, UniProt Q97W73 1-148)", "T2 sequence": "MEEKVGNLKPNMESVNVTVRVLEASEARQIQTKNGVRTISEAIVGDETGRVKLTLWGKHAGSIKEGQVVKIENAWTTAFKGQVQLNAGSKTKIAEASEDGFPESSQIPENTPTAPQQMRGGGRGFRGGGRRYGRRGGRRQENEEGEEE", "assay": "EMSA"}, "CspB (untagged)": {"target": "CspB (untagged) (Bacillus subtilis, UniProt P32081 1-67)", "sequence (P32081 whole entry)": "as the sequence (P32081 whole entry, one chain of several) above", "assay": "EMSA"}, "[3]": {"target": "T1, His6-CspB (major cold shock protein)", "assay": "EMSA"}, "SsoSSB-Cy5": {"target": "T3, SsoSSB-Cy5 (Sulfolobus solfataricus, UniProt Q97W73 1-148)", "T3 sequence": "T2 sequence", "assay": "EMSA"}, "[4]": {"target": "T1, His6-CspB (major cold shock protein)", "assay": "ITC"}}}
{"binder": "B1", "values": [{"measurement": "binding result", "setting": "[1]", "result": "binds"}, {"measurement": "binding result", "setting": "[2]", "result": "binds"}]}
{"binder": "B2", "values": [{"measurement": "binding result", "setting": "SsoSSB", "result": "binds"}, {"measurement": "binding result", "setting": "CspB (untagged)", "result": "binds"}, {"measurement": "binding result", "setting": "[3]", "result": "binds"}, {"measurement": "binding result", "setting": "SsoSSB-Cy5", "result": "binds"}]}
{"binder": "B3", "values": [{"measurement": "binding result", "setting": "[4]", "result": "binds"}]}
{"binder": "B4", "values": [{"measurement": "binding result", "setting": "[4]", "result": "binds"}]}
